According to the RNAGym collection of RNA variant scans (doi:10.7554/elife.90254):

B1: LINE1-mini (parent)
chain: GGCAGAGCUCAACACAGCGUGGCAAAGUGGCUGUGGCUAGACUGCC

Variants of: B1
Assay: self-cleavage, relative activity (ratio to wild type); higher = more cleavage; in vitro, sequencing; the parent is a self-cleaving ribozyme

Variant	self-cleavage
GGCAGAGCUCAACACAGCGUGGAAAAGAGGCUGUGGCUAGACUGCC [C23A U28A]	0.78
GGCAGAGCUCAACACAGCGUGGAAAAGCGGCUGUGGCUAGACUGCC [C23A U28C]	0.88
GGCAGAGCUCAACACAGCGUGGAAAAGGGGCUGUGGCUAGACUGCC [C23A U28G]	0.44
GGCAGAGCUCAACACAGCGUGGGAAAGUGGCCGUGGCUAGACUGCC [C23G U32C]	0.28
GGCAGAGCUCAACACAGCGUGGGAAAGUGGCAGUGGCUAGACUGCC [C23G U32A]	0.07
GGCAGAGCUCAACACAGCGUGGGAAAGUGGCGGUGGCUAGACUGCC [C23G U32G]	0.21
GGCAGAGCUCAACACAGCGUGGGAAAGUGGCUGUGGCUAGAUUGCC [C23G C42U]	0.47
GGCAGAGCUCAACACAGCGUGGGAAAGUGGCUGUGGCUAGAAUGCC [C23G C42A]	0.19
GGCAGAGCUCAACACAGCGUGGGAAAGUGGCUGUGGCUAGAGUGCC [C23G C42G]	0.03
GGCAGAGCUCAACACAGCGUGGUGAAGUGGCUGUGGCUAGACUGCC [C23U A24G]	0.88
GGCAGAGCUCAACACAGCGUGGUUAAGUGGCUGUGGCUAGACUGCC [C23U A24U]	0.84
GGCAGAGCUCAACACAGCGUGGUCAAGUGGCUGUGGCUAGACUGCC [C23U A24C]	0.71
GGCAGAGCUCAACACAGCGUGGGAAAGUGGCUCUGGCUAGACUGCC [C23G G33C]	0.03
GGCAGAGCUCAACACAGCGUGGGAAAGUGGCUUUGGCUAGACUGCC [C23G G33U]	0.16
GGCAGAGCUCAACACAGCGUGGGAAAGUGGCUAUGGCUAGACUGCC [C23G G33A]	0.32
GGCAGAGCUCAACACAGCGUGGGAAAGUGGCUGUGGCUAGGCUGCC [C23G A41G]	0.37
GGCAGAGCUCAACACAGCGUGGGAAAGUGGCUGUGGCUAGCCUGCC [C23G A41C]	0.04
GGCAGAGCUCAACACAGCGUGGGAAAGUGGCUGUGGCUAGUCUGCC [C23G A41U]	0.53
GGCAGAGCUCAACACAGCGUGGGAAAGUGGCUGUGGCUAGACUGCC [C23G]	0.84

Variant	self-cleavage
GGCAGAGCUCAACACAGCGUGGUAAAGUGGCUGUGGCUAGACUGCC [C23U]	1.03
GGCAGAGCUCAACACAGCGUGGGAACGUGGCUGUGGCUAGACUGCC [C23G A26C]	0.88
GGCAGAGCUCAACACAGCGUGGGAAUGUGGCUGUGGCUAGACUGCC [C23G A26U]	1.62
GGCAGAGCUCAACACAGCGUGGGAAGGUGGCUGUGGCUAGACUGCC [C23G A26G]	0.76
GGCAGAGCUCAACACAGCGUGGAAAAGUGGCUGUGUCUAGACUGCC [C23A G36U]	0.06
GGCAGAGCUCAACACAGCGUGGAAAAGUGGCUGUGACUAGACUGCC [C23A G36A]	0.17
GGCAGAGCUCAACACAGCGUGGAAAAGUGGCUGUGCCUAGACUGCC [C23A G36C]	0.07
GGCAGAGCUCAACACAGCGUGGGAAAGUGGUUGUGGCUAGACUGCC [C23G C31U]	0.2
GGCAGAGCUCAACACAGCGUGGGAAAGUGGAUGUGGCUAGACUGCC [C23G C31A]	0.09
GGCAGAGCUCAACACAGCGUGGGAAAGUGGGUGUGGCUAGACUGCC [C23G C31G]	0.07
GGCAGAGCUCAACACAGCGUGGGAAAGUGGCUGUGGCCAGACUGCC [C23G U38C]	0.42
GGCAGAGCUCAACACAGCGUGGGAAAGUGGCUGUGGCGAGACUGCC [C23G U38G]	0.02
GGCAGAGCUCAACACAGCGUGGGAAAGUGGCUGUGGCAAGACUGCC [C23G U38A]	0.32
GGCAGAGCUCAACACAGCGUGGAAAAGUGGCUGAGGCUAGACUGCC [C23A U34A]	0.24
GGCAGAGCUCAACACAGCGUGGAAAAGUGGCUGCGGCUAGACUGCC [C23A U34C]	0.78
GGCAGAGCUCAACACAGCGUGGAAAAGUGGCUGGGGCUAGACUGCC [C23A U34G]	0.22
GGCAGAGCUCAACACAGCGUGGGGAAGUGGCUGUGGCUAGACUGCC [C23G A24G]	0.88
GGCAGAGCUCAACACAGCGUGGGUAAGUGGCUGUGGCUAGACUGCC [C23G A24U]	0.75
GGCAGAGCUCAACACAGCGUGGGCAAGUGGCUGUGGCUAGACUGCC [C23G A24C]	0.41

Variant	self-cleavage
GGCAGAGCUCAACACAGCGUGGGAAAAUGGCUGUGGCUAGACUGCC [C23G G27A]	0.95
GGCAGAGCUCAACACAGCGUGGGAAACUGGCUGUGGCUAGACUGCC [C23G G27C]	0.27
GGCAGAGCUCAACACAGCGUGGGAAAUUGGCUGUGGCUAGACUGCC [C23G G27U]	1.17
GGCAGAGCUCAACACAGCGUGGGAAAGUGGCUGUGGCUAUACUGCC [C23G G40U]	0.14
GGCAGAGCUCAACACAGCGUGGGAAAGUGGCUGUGGCUACACUGCC [C23G G40C]	0.13
GGCAGAGCUCAACACAGCGUGGGAAAGUGGCUGUGGCUAAACUGCC [C23G G40A]	0.07
GGCAGAGCUCAACACAGCGUGGUAACGUGGCUGUGGCUAGACUGCC [C23U A26C]	0.64
GGCAGAGCUCAACACAGCGUGGUAAGGUGGCUGUGGCUAGACUGCC [C23U A26G]	0.88
GGCAGAGCUCAACACAGCGUGGUAUAGUGGCUGUGGCUAGACUGCC [C23U A25U]	0.93
GGCAGAGCUCAACACAGCGUGGUAGAGUGGCUGUGGCUAGACUGCC [C23U A25G]	1.17
GGCAGAGCUCAACACAGCGUGGUACAGUGGCUGUGGCUAGACUGCC [C23U A25C]	0.86
GGCAGAGCUCAACACAGCGUGGGAAAGUGGCUGUGACUAGACUGCC [C23G G36A]	0.14
GGCAGAGCUCAACACAGCGUGGGAAAGUGGCUGUGUCUAGACUGCC [C23G G36U]	0.07
GGCAGAGCUCAACACAGCGUGGGAAAGUGGCUGUGCCUAGACUGCC [C23G G36C]	0.11
GGCAGAGCUCAACACAGCGUGGGAAAGUAGCUGUGGCUAGACUGCC [C23G G29A]	1.01
GGCAGAGCUCAACACAGCGUGGGAAAGUUGCUGUGGCUAGACUGCC [C23G G29U]	0.47
GGCAGAGCUCAACACAGCGUGGGAAAGUCGCUGUGGCUAGACUGCC [C23G G29C]	0.26
GGCAGAGCUCAACACAGCGUGGGAAAGUGGCUGUGGCUUGACUGCC [C23G A39U]	0.69
